The record followed here is the supplement of paper PMC10567573.

B1: SLC6A17 (parent)
chain: HMFTPKLDKMLDPQVWREAATQVF
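Note: lentivirally expressed fusions sorted by FACS into six bins by GFP to DsRed ratio, PSI derived from sequencing read proportions per bin multiplied by bin number.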

Variants of B1 are the subject of the series. Put plainly: protein stability index of a GFP-peptide fusion (GPS, HEK-293T) (PSI 1-6); higher = more stable. The conditions noted are these: c terminus: a fixed tail appended.
HMFTPKLDKMLDPQVWREACTQVF [A20C]: the protein stability index was determined as 1.82.

HMFTPKLDKMLDPQVWREAFTQVF [A20F]: the protein stability index is 1.43.

Take HMFTPKLDKMLDPQVWREAPTQVF [A20P]: the protein stability index stood at 1.48.

Take HMFSPKLDKMLDPQVWREAATQVF [T4S]: the protein stability index was 2.67.

Turning to HMFKPKLDKMLDPQVWREAATQVF [T4K], the protein stability index is 1.67.

HMFNPKLDKMLDPQVWREAATQVF [T4N]: the protein stability index worked out at 1.39.

Turning to HMFQPKLDKMLDPQVWREAATQVF [T4Q], the protein stability index was found to be 1.8.

In the case of HMFTPKLDKMLDPQVMREAATQVF [W16M], the protein stability index worked out at 2.14.

HMFTPKLDKMLDPQVPREAATQVF [W16P]: the protein stability index is 3.78.

As for HMFTPKLDKMLDPQVYREAATQVF [W16Y], the protein stability index is 2.62.

With HMFTPKLDKMLDPQVHREAATQVF [W16H], the protein stability index was determined as 3.88.

With HMFTPKLDKMLDPQVFREAATQVF [W16F], the protein stability index worked out at 2.47.

HMFTPKLDKMLDPQVWRVAATQVF [E18V]: the protein stability index was found to be 2.37.

As for HMFTPKLDKMLDPQVWRIAATQVF [E18I], the protein stability index turned out to be 1.97.

For the variant HMFTPKLDKMLDPQVWRCAATQVF [E18C], the protein stability index stood at 1.29.

Take HMFTPKLDKMLDPQVWRYAATQVF [E18Y]: the protein stability index was 1.75.

For the variant HMFTPKLDKMLDPQVWRHAATQVF [E18H], the protein stability index came out at 1.91.

Regarding HMFTPKLDKMLDPQVWRPAATQVF [E18P], the protein stability index is 1.86.

With HMFTPKLDKMLDPQVWRTAATQVF [E18T], the protein stability index was determined as 1.79.

Consider HMFTPKLDKMLDPQVWRQAATQVF [E18Q], for which the protein stability index was found to be 2.22.

Consider HMFTPKLDKMLDPQVWRLAATQVF [E18L], for which the protein stability index was found to be 1.38.

Turning to HMRTPKLDKMLDPQVWREAATQVF [F3R], the protein stability index was 2.4.

For the variant HMTTPKLDKMLDPQVWREAATQVF [F3T], the protein stability index turned out to be 2.01.

Regarding HMFTPKLDKMLHPQVWREAATQVF [D12H], the protein stability index was 1.66.

Take HMFTPKLDKMLAPQVWREAATQVF [D12A]: the protein stability index was found to be 1.98.

As for HMFTPKLDKMLPPQVWREAATQVF [D12P], the protein stability index worked out at 1.91.

In the case of HMFTPKLDKMLNPQVWREAATQVF [D12N], the protein stability index was 1.34.

Regarding HMFTPKLDKMLVPQVWREAATQVF [D12V], the protein stability index was determined as 1.32.

Consider HMFTPKLDKMLKPQVWREAATQVF [D12K], for which the protein stability index came out at 1.63.

Take HMFTPKLCKMLDPQVWREAATQVF [D8C]: the protein stability index stood at 1.67.

Regarding HMFTPKLAKMLDPQVWREAATQVF [D8A], the protein stability index came out at 1.82.

HMFTPKLVKMLDPQVWREAATQVF [D8V]: the protein stability index is 1.34.

For the variant HMFTPKLDKMLDPQVWREAATAVF [Q22A], the protein stability index came out at 1.36.

For the variant HMFTPKLDKMLDPQVWREAATNVF [Q22N], the protein stability index amounted to 2.5.

In the case of HMFTPKLDKMLDPQVWREAATHVF [Q22H], the protein stability index turned out to be 1.64.

As for HMFTPKLDKMLDPQVWREAATSVF [Q22S], the protein stability index amounted to 1.9.

With HMFTPKLDKMLDPQVWREAATTVF [Q22T], the protein stability index worked out at 1.82.

On to HMFTPKLDKMLDCQVWREAATQVF [P13C], for which the protein stability index stood at 1.82.

For the variant HMFTPKLDKMLDQQVWREAATQVF [P13Q], the protein stability index was 2.19.

Consider HMFTPKLDKMLDFQVWREAATQVF [P13F], for which the protein stability index stood at 1.67.

For HMFTPKLDKMLDPQVWREAATQSF [V23S], the protein stability index is 2.05.

Regarding HMFTPKLDKMLDPQVWREAATQDF [V23D], the protein stability index is 3.65.

In the case of HMFTPKLDKMLDPQVWREAATQPF [V23P], the protein stability index was found to be 2.2.

With HMFTPKLDKMLDPQVWREAATQQF [V23Q], the protein stability index is 1.74.

As to HMFTPKLDKMLDPQVWREAATQAF [V23A], the protein stability index came out at 2.02.

On to HMFTPKLDKMLDPQVWREAATQYF [V23Y], for which the protein stability index came out at 2.17.

For HMFTPKLDKMLDPQVWREAATQMF [V23M], the protein stability index turned out to be 1.55.

For the variant HMFTPKLDKMLDPQVWREAATQKF [V23K], the protein stability index was determined as 2.48.

For HMFTPKLDKMLDPQVWREAAGQVF [T21G], the protein stability index stood at 2.13.

HMFTPKLDKMLDPQVWREAAQQVF [T21Q]: the protein stability index stood at 1.28.

On to HMFTPKLDKMLDPQVWREAAEQVF [T21E], for which the protein stability index was 2.42.

As to HMFTPKLDKMLDPQVWREAAFQVF [T21F], the protein stability index was found to be 3.23.

For the variant HMFTPKLDKMLDPQVWPEAATQVF [R17P], the protein stability index came out at 1.89.

Regarding HMFTPKLDKMLDPQVWTEAATQVF [R17T], the protein stability index stood at 1.82.

Take HMFTPKLDKMLDPQVWCEAATQVF [R17C]: the protein stability index turned out to be 1.39.

Regarding HMFTPKLDKMLDPQVWSEAATQVF [R17S], the protein stability index was determined as 2.8.

Regarding HMFTPKLDKMLDPQVWYEAATQVF [R17Y], the protein stability index worked out at 1.18.

In the case of HMFTPSLDKMLDPQVWREAATQVF [K6S], the protein stability index amounted to 1.89.

Turning to HMFTPFLDKMLDPQVWREAATQVF [K6F], the protein stability index was determined as 1.65.

Regarding HMFTPNLDKMLDPQVWREAATQVF [K6N], the protein stability index came to 2.11.

On to HMFTPGLDKMLDPQVWREAATQVF [K6G], for which the protein stability index came to 1.8.

On to HAFTPKLDKMLDPQVWREAATQVF [M2A], for which the protein stability index was 1.9.

Regarding HHFTPKLDKMLDPQVWREAATQVF [M2H], the protein stability index came out at 2.49.

As to HTFTPKLDKMLDPQVWREAATQVF [M2T], the protein stability index came to 2.14.

In the case of MMFTPKLDKMLDPQVWREAATQVF [H1M], the protein stability index was 2.74.

AMFTPKLDKMLDPQVWREAATQVF [H1A]: the protein stability index was 2.73.

For CMFTPKLDKMLDPQVWREAATQVF [H1C], the protein stability index was 1.56.

As to DMFTPKLDKMLDPQVWREAATQVF [H1D], the protein stability index came out at 2.3.

Consider HMFTPKLDKMGDPQVWREAATQVF [L11G], for which the protein stability index is 2.9.

HMFTPKLDKMADPQVWREAATQVF [L11A]: the protein stability index is 1.55.

In the case of HMFTPKLDKMHDPQVWREAATQVF [L11H], the protein stability index came out at 2.23.

As for HMFTPKLDKMRDPQVWREAATQVF [L11R], the protein stability index turned out to be 3.13.

In the case of HMFTPKLDKMLDPQKWREAATQVF [V15K], the protein stability index amounted to 2.39.

Take HMFTPKLDKMLDPQEWREAATQVF [V15E]: the protein stability index is 2.84.

Consider HMFTPKLDKMLDPQWWREAATQVF [V15W], for which the protein stability index came out at 2.24.

In the case of HMFTPKLDKMLDPQTWREAATQVF [V15T], the protein stability index turned out to be 2.66.

Take HMFTPKLDKMLDPQSWREAATQVF [V15S]: the protein stability index was determined as 2.15.

As for HMFTPKLDKMLDPRVWREAATQVF [Q14R], the protein stability index is 1.94.

Regarding HMFTPKLDKMLDPEVWREAATQVF [Q14E], the protein stability index is 2.41.

Regarding HMFTPKLDKTLDPQVWREAATQVF [M10T], the protein stability index amounted to 1.66.

HMFTPKLDKILDPQVWREAATQVF [M10I]: the protein stability index amounted to 1.74.

With HMFTPKLDKFLDPQVWREAATQVF [M10F], the protein stability index was 2.59.

As to HMFTPKLDKSLDPQVWREAATQVF [M10S], the protein stability index is 2.17.

Take HMFTPKLDKMLDPQVWREAATQVM [F24M]: the protein stability index came to 2.96.

Take HMFTPKLDKMLDPQVWREAATQVR [F24R]: the protein stability index turned out to be 2.85.

Turning to HMFTPKLDKMLDPQVWREAATQVH [F24H], the protein stability index was 2.18.

Take HMFTPKLDKMLDPQVWREAATQVV [F24V]: the protein stability index is 2.69.

As to HMFTPKLDKMLDPQVWREAATQVD [F24D], the protein stability index stood at 3.56.

Regarding HMFTTKLDKMLDPQVWREAATQVF [P5T], the protein stability index worked out at 1.53.

As for HMFTRKLDKMLDPQVWREAATQVF [P5R], the protein stability index worked out at 1.78.

Turning to HMFTPKEDKMLDPQVWREAATQVF [L7E], the protein stability index was 2.86.

In the case of HMFTPKADKMLDPQVWREAATQVF [L7A], the protein stability index stood at 1.94.

In the case of HMFTPKYDKMLDPQVWREAATQVF [L7Y], the protein stability index amounted to 1.46.

Regarding HMFTPKLDKMLDPQVWREYATQVF [A19Y], the protein stability index was found to be 2.12.

Take HMFTPKLDKMLDPQVWREDATQVF [A19D]: the protein stability index came out at 2.21.
